{"source": "paper PMC4384738", "biological_target": "WISp39 (UniProt Q9UIM3)", "experiment": "anti-GFP co-IP, Western blot", "settings": "reference: wild type; sites S2"}
{"substance": "Coronin 1B (from UniProt Q9BR76) S2A", "values": [{"measurement": "binding against the reference", "value": "lost"}]}
